Source: paper PMC7439320 (Science Advances, 2020)
“And” between values parts separate entries of the source, which are not always exact repeats. Equal entries are not always repeated.

B1: Caenorhabditis elegans calcium homeostasis modulator protein CLHM-1 (CeCLHM-1) (natural protein)
chain: MTTSINSVVTVFQNVFTNHGSTLLNGILIATTVGGQSLVRKLTFSCPCAYPLNIYHSLVFMFGPTAALLLIGITVNSTTWKLAHGFFFRVRDTRHSWKTTCVSWIEVLIQSSVAPIAWLFVVFLDGGYYRCYRSHEFCLISDAILCKNSTILNSYASTSSFNKISDNGKYCPPCICVPNPTDASYLEAESQIYAWGLLLFSGVAAFLVITCNRMCDKYTLVQRQYVETYKNVETQKFDAVAKEHASQLAEHNARAFFGQKDWTKRDWDWVSGIPEVNNPLFARLRLIAAEKTQQTMYTPLQLWNDNKGYRIPQPDLQLTQIIVDETKED
B2: Homo sapiens calcium homeostasis modulator 2 (HsCALHM2) (natural protein)
chain: MAALIAENFRFLSLFFKSKDVMIFNGLVALGTVGSQELFSVVAFHCPCSPARNYLYGLAAIGVPALVLFIIGIILNNHTWNLVAECQHRRTKNCSAAPTFLLLSSILGRAAVAPVTWSVISLLRGEAYVCALSEFVDPSSLTAREEHFPSAHATEILARFPCKENPDNLSDFREEVSRRLRYESQLFGWLLIGVVAILVFLTKCLKHYCSPLSYRQEAYWAQYRANEDQLFQRTAEVHSRVLAANNVRRFFGFVALNKDDEELIANFPVEGTQPRPQWNAITGVYLYRENQGLPLYSRLHKWAQGLAGNGAAPDNVEMALLPS
B3: Chimeric channel of the TMD from OlCALHM1 and the CTD from HsCALHM2 (OlCALHM1c) (other)
chain: MDKFRMMFQFLQSNQESFMNGICGIMALASAQMYSSFEFSCPCMPEYNYTYGIGLLIIPPIWFFLLGFVLNNNVSVLAEEWKRPTGRRTKDPSVLRYMLCSITQRSLIAPAVWVSVTLMDGKSFLCAFSINLDIEKFGNASLVIGMTETEKLKFLARIPCKDLFEDNEVRVAATRYIKCISQACGWMFLLMMTFTAFLIRAIRPCFTQASYRQEAYWAQYRANEDQLFQRTAEVHSRVLAANNVRRFFGFVALNKDDEELIANFPVEGTQPRPQWNAITGVYLYRENQGLPLYSRLHKWAQGLAGNGAAPDNVEMALLPS
B4: Oryzias latipes CALHM1 truncated at the C terminus (OlCALHM1EM) (domain or fragment)
chain: MDKFRMMFQFLQSNQESFMNGICGIMALASAQMYSSFEFSCPCMPEYNYTYGIGLLIIPPIWFFLLGFVLNNNVSVLAEEWKRPTGRRTKDPSVLRYMLCSITQRSLIAPAVWVSVTLMDGKSFLCAFSINLDIEKFGNASLVIGMTETEKLKFLARIPCKDLFEDNEVRVAATRYIKCISQACGWMFLLMMTFTAFLIRAIRPCFTQAAFLKTKYWSHYIDIERKMFDETCKEHAKSFAKVCIHQYFENISGEMQNFHRHQSKDTSDAEEEEKQRSDEDKLLGIKAQEDMNKVL

Target: the molecule itself
Assay: cryo-EM structure

Protein	stoichiometry N
B1	9
B2	11
B3	8 and 9
B4	8
